From US20240254192A1 come the findings set out here.

Assay [1] deals with tBCMA [BCMA extracellular domain - PDL1 hinge & TM plus Trop2 cytoplasmic domain]. The assay can be described thus: cell-based or functional assay.
Assay [2] has as its target CD30 expressed on primary T cells transduced with BCL6 and BCL2L1 (Homo sapiens (Human)) (UniProt P28908). Briefly: cell-based or functional assay.

Sequence of tBCMA [BCMA extracellular domain - PDL1 hinge & TM plus Trop2 cytoplasmic domain] (chain, as listed by the source limits assumed, form in doubt): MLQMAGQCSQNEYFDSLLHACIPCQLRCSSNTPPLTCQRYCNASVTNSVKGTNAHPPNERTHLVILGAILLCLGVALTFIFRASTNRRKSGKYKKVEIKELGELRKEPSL
Sequence of CD30 expressed on primary T cells transduced with BCL6 and BCL2L1 (Homo sapiens (Human)) (P28908 19-595 limits assumed): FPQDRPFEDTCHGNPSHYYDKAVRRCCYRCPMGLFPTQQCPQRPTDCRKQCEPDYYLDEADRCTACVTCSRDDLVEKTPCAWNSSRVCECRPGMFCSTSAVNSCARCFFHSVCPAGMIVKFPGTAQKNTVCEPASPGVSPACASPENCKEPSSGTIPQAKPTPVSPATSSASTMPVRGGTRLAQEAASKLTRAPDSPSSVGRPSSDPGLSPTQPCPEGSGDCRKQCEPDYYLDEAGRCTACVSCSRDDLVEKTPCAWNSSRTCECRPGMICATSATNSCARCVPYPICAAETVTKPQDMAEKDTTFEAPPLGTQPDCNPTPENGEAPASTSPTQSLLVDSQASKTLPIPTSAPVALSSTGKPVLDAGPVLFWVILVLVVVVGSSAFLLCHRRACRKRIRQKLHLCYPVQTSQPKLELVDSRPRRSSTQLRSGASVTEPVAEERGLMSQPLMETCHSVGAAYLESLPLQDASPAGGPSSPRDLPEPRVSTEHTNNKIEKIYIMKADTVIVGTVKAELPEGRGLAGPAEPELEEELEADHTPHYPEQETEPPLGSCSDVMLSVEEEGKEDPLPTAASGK

For belantamab mafodotin (antibody), in assay [1], the percent change in live cell number (day 2) was < 80%.

Regarding brentuximab vedotin (antibody), the percent change in live cell number in assay [2] was < 95%.
